# According to patent US20180057581A1 (MorphoSys, published 2018):
# Numbering of substitutions follows the chain as printed. Names and notes keep the numbering of the source.
# T1: Recombinant cynomolgus monkey sgM-CSF (cynomolgus (Macaca fascicularis), UniProt P09603 33-255 (human entry), limits assumed)
# T1 chain: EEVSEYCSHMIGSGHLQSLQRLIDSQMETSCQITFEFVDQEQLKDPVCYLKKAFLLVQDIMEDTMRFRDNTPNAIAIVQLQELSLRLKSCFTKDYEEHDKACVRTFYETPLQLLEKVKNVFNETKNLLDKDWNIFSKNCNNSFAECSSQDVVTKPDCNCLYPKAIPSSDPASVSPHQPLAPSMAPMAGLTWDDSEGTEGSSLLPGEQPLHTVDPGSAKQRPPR
# T2: Recombinant human sgM-CSF (human, UniProt P09603 33-255)
# T2 sequence: T1 chain with M186V, D192E
# T3: human cell-surface M-CSF on stably transfected CHO cells (human, UniProt P09603 33-554)
# T3 construct: also called csM-CSF
# T3 sequence: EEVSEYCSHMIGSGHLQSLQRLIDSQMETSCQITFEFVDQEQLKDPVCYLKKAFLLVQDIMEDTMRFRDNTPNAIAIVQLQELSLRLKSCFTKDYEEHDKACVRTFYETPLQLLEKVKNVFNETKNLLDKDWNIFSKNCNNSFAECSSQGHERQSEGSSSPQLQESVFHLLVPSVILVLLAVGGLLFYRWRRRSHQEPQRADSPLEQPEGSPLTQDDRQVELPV
# B1: Romaine, IgG1_D265A (antibody, V domains shown)
# VH: EVQLVESGGGLVKPGGSLRLSCAASGFTFSIYAMSWVRQAPGKGLEWVGRIKSNADGGTTEYAAPVKGRFTISRDDSKNTLYLQMNSLKTEDTAVYYCARMRYYSDLYFDPWGQGTLVTVSS
# VL: DIELTQPPSVSVSPGQTASITCSGDAIGSKYVHWYQQKPGQAPVLVISKDNKRPSGIPERFSGSNSGNTATLTISGTQAEDEADYYCQTATVSSYWWVFGGGTKLTVLG
# notes: tested as IgG1 with D265A in the Fc (EU index); Parental antibody of Satine, Servane
# B2: Satine, IgG1_D265A (antibody, V domains shown)
# VH: B1 VH
# VL: SYELTQPPSVSVSPGQTASITCSGDKLGQKYVSWYQQKPGQSPVLVISQDRKRPSGIPERFSGSNSGNTATLTISGTQAEDEADYYCQTWTHLQWVFGGGTKLTVLG
# notes: tested as IgG1 with D265A in the Fc (EU index)
# B3: Servane, IgG1_D265A (antibody, V domains shown)
# VH: B1 VH with I31T, M34I, R50F, N54K, A55H, D56N, G57S
# VL: B2 VL
# notes: as for B2
# B4: 8.10.3F, IgG2 (antibody, V domains shown)
# VH: EVQLVESGGGLVQPGGSLRLSCAASGFTFSSFSMTWVRQAPGKGLEWVSYISSRSSTISYADSVKGRFTISRDNAKNSLYLQMNSLRDEDTAVYYCARDPLLAGATFFDYWGQGTLVTVSS
# VL: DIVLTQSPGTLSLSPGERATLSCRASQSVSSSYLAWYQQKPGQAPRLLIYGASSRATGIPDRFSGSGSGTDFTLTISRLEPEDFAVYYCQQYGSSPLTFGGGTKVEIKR
# notes: tested as IgG2; also called 8.10.F3
# B5: 8.10.3F, IgG1_D265A (antibody, V domains shown)
# VH: B4 VH
# VL: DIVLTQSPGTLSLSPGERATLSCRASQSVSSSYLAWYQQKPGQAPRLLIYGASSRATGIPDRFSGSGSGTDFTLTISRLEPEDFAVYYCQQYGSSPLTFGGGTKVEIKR
# notes: Prior art antibody; tested as IgG1 with D265A in the Fc (EU index); also called 8.10.F3
# B6: Blanche, IgG1_D265A (antibody, V domains shown)
# VH: QVQLQQSGPGLVKPSQTLSLTCAISGDSVSSNSAAWNWIRQSPSRGLEWLGRTYYRSKWKHEYAMSVKSRITINPDTSKNQFSLQLNSVTPEDTAVYYCARDRYYYSAFDYWGQGTLVTVSS
# VL: DIALTQPASVSGSPGQSITISCTGTSSDVGGYNSVSWYQQHPGKAPKLMIYAVSNRPSGVSNRFSGSKSGNTASLTISGLQAEDEADYYCASYDERFTRVFGGGTKLTVLG
# notes: tested as IgG1 with D265A in the Fc (EU index); Parental antibody of Caline, Camille, Celine
# B7: Meriem, IgG1_D265A (antibody, V domains shown)
# VH: B6 VH with S31T, N32S, H61K, M65Q
# VL: B6 VL with D1Q, I2S, M49I
# notes: as for B2
# B8: Laurine, IgG1_D265A (antibody, V domains shown)
# VH: B6 VH with H61K, M65Q
# VL: B6 VL
# notes: tested as IgG1 with D265A in the Fc (EU index); Parental antibody of Madeleine, Maelle, Meriem
# B9: Camille, IgG1_D265A (antibody, V domains shown)
# VH: B6 VH with D27E, S31T, N32S, M65V
# VL: B6 VL with D1Q, I2S, M49L
# notes: as for B2
# B10: Maelle, IgG1_D265A (antibody, V domains shown)
# VH: B6 VH with D27E, S31T, N32S, H61K, M65Q
# VL: B6 VL with D1Q, I2S, M49I
# notes: as for B2
# B11: Celine, IgG1_D265A (antibody, V domains shown)
# VH: B6 VH with S31T, N32S, M65V
# VL: B6 VL with D1Q, I2S, M49I
# notes: as for B2
# B12: Caline, IgG1_D265A (antibody, V domains shown)
# VH: B6 VH
# VL: B6 VL with D1Q, I2S
# notes: as for B2
# B13: Madeleine, IgG1_D265A (antibody, V domains shown)
# VH: B6 VH with H61K, M65Q
# VL: B6 VL with D1Q, I2S
# notes: as for B2
# B14: HeRX1-10G1, IgG1 (antibody, V domains shown)
# VH: QVQLQESGPGLVKPSQTLSLTCTVSDYSITSDYAWNWIRQFPGKGLEWMGYISYSGSTSYNPSLKSRITISRDTSKNQFSLQLNSVTAADTAVYYCASFDYAHAMDYWGQGTTVTVSS
# VL: DIVLTQSPAFLSVTPGEKVTFTCQASQSIGTSIHWYQQKTDQAPKLLIKYASESISGIPSRFSGSGSGTDFTLTISSVEAEDAADYYCQQINSWPTTFGGGTKLEIKR
# notes: tested as IgG1
# B15: HeRX1-10G1, IgG1_D265A (antibody, V domains shown)
# VH: B14 VH
# VL: B14 VL
# notes: Prior art antibody; tested as IgG1 with D265A in the Fc (EU index)
# Target: T1, Recombinant cynomolgus monkey sgM-CSF
# Test: cell-based or functional assay
row,Binder,"IC50, inhibition of M-NFS-60 proliferation induced by recombinant cynomolgus M-CSF (9.5 pM) [pM]"
1,B1,8.1
2,B2,5.4
3,B3,13.4
4,B4,84.6
5,B5,16.5
6,B6,3.3
7,B7,2.8
8,B8,2.8
9,B9,2.6
10,B10,2.3
11,B11,3
12,B12,4.3
13,B13,2.8
14,B14,4.1
15,B15,3.5

# Target: T2, Recombinant human sgM-CSF
# Test: cell-based or functional assay
row,Binder,"IC50, inhibition of M-NFS-60 proliferation induced by recombinant human M-CSF (9.5 pM) [pM]"
1,B1,8.4
2,B2,5.3
3,B3,11.8
4,B4,71.1
5,B5,14.9
6,B6,2.9
7,B7,3.1
8,B8,2.6
9,B9,2.3
10,B10,2.7
11,B11,2.7
12,B12,3.1
13,B13,3
14,B14,3.6
15,B15,3

# Target: T2, Recombinant human sgM-CSF
# Test: MSD receptor binding inhibition: 12.5 pM human sgM-CSF preincubated with antibody, binding to coated human CSF1-R-Fc
# Protocol: (§1) Complexes were then transferred to 384 well MSD plates coated with 2 μg/ml of the corresponding receptor. Plates were then washed and incubated with the streptavidin/ECL conjugate for 2 h with shaking at room temperature. 35 μl MSD read buffer T with surfactant was then added per well and subsequently measured using MSD Sector Imager 6000.
row,Binder,IC50 [pM]
1,B1,9.1
2,B2,15.1
3,B3,31.3
4,B4,31.4
5,B5,19.2
6,B6,6.2
7,B7,7
8,B8,4.9
9,B9,4.4
10,B10,5.3
11,B11,4.7
12,B12,6.1
13,B13,5.6
14,B14,26.5
15,B15,28

# Target: T1, Recombinant cynomolgus monkey sgM-CSF
# Test: MSD receptor binding inhibition: 12.5 pM cynomolgus sgM-CSF preincubated with antibody, binding to coated human CSF1-R-Fc
# Protocol: as §1
row,Binder,IC50 [pM]
1,B1,9.1
2,B2,13.5
3,B3,11.8
4,B4,20.7
5,B5,14.6
6,B6,6.6
7,B7,7.3
8,B8,4.3
9,B9,5.9
10,B10,6.4
11,B11,6.9
12,B12,6.3
13,B13,5.6
14,B14,27.6
15,B15,18

# Target: T3, human cell-surface M-CSF on stably …
# Test: FACS, CHO cells stably transfected with M-CSF (n = 3)
row,Binder,EC50 [pM]
1,B1,16400
2,B2,11300
3,B3,21300
4,B4,23200
5,B5,8900
6,B6,7500
7,B7,12300
8,B8,11200
9,B9,6100
10,B10,10200
11,B11,9700
12,B12,9800
13,B13,6400
14,B14,12600
15,B15,8900
